Results taken from the MegaScale stability set (Tsuboyama et al. 2023).

B1: 2K2A (parent)
chain: ELREAFRLYDKEGNGYISTDVMREILAELDETLSSEDLDAMIDEIDADGSGTVDFEEFMGVMT

Variants of: B1
Test: folding stability dG (cDNA display proteolysis); higher = more stable
Settings: PBS, room temperature

Variant | folding stability dG [kcal/mol]
ELREAFRLYDKEGNGYISTDVMREILAELDETLSSEDLDAMIDEIDADGSGTVDFEEFMGVVT [M62V] | 1.34
ELREAFRLYDKEGNGYISTDVMREILAELDETLSSEDLDAMIDEIDADGSGTVDFEEFMGVFT [M62F] | 2.04
ELREAFRLYDKEGNGYISTDVMREILAELDETLSSEDLDAMIDEIDADGSGTVDFEEFMGVET [M62E] | -0.063
ELREAFRLYDKEGNGYISTDVMREILAELDETLSSEDLDAMIDEIDADGSGTVDFEEFMGVNT [M62N] | 0.258
ELREAFRLYDKEGNGYISTDVMREILAELDETLSSEDLDAMIDEIDADGSGTVDFEEFMGVRT [M62R] | 0.711
ELREAFRLYDKEGNGYISTDVMREILAELDETLSSEDLDAMIDEIDADGSGTVDFEEFMGVYT [M62Y] | 1.58
ELREAFRLYDKEGNGYISTDVMREILAELDETLSSEDLDAMIDEIDADGSGTVDFEEFMGVGT [M62G] | 0.514
ELREAFRLYDKEGNGYISTDVMREILAELDETLSSEDLDAMIDEIDADGSGTVDFEEFMGVLT [M62L] | 1.5
ELREAFRLYDKEGNGYISTDVMREILAELDETLSSEDLDAMIDEIDADGSGTVDFEEFMGVPT [M62P] | 0.128
ELREAFRLYDKEGNGYISTDVMREILAELDETLSSEDLDAMIDEIDADGSGTVDFEEFMGVST [M62S] | 0.277
ELREAFRLYDKEGNGYISTDVMREILAELDETLSSEDLDAMIDEIDADGSGTVDFEEFMGVKT [M62K] | 0.674
ELREAFRLYDKEGNGYISTDVMREILAELDETLSSEDLDAMIDEIDADGSGTVDFEEFMGVQT [M62Q] | 0.539
ELREAFRLYDKEGNGYISTDVMREILAELDETLSSEDLDAMIDEIDADGSGTVDFEEFMGVHT [M62H] | 0.762
ELREAFRLYDKEGNGYISTDVMREILAELDETLSSEDLDAMIDEIDADGSGTVDFEEFMGVCT [M62C] | 1.81
ELREAFRLYDKEGNGYISTDVMREILAELDETLSSEDLDAMIDEIDADGSGTVDFEEFMGVDT [M62D] | 0.171
ELREAFRLYDKEGNGYISTDVMREILAELDETLSSEDLDAMIDEIDADGSGTVDFEEFMGVWT [M62W] | 1.83
ELREAFRLYDKEGNGYISTDVMREILAELDETLSSEDLDAMIDEIDADGSGTVDFEEFMGVAT [M62A] | 0.857
ELREAFRLYDKEGNGYISTDVMREILAELDETLSSEDLDAMIDEIDADGSGTVDFEEFMGVIT [M62I] | 1.48
ELREAFRLYDKEGNGYISTDVMREILAELDETLSSEDLDAMIDEIDADGSGTVDFEEFMGVTT [M62T] | 0.559
ELREAFRLYDKEGNGYISTDVMREILAELDETLSSEDLDAMIDEIDADGSGTVDFEEFMGQMT [V61Q] | 0.902
ELREAFRLYDKEGNGYISTDVMREILAELDETLSSEDLDAMIDEIDADGSGTVDFEEFMGDMT [V61D] | -0.74
ELREAFRLYDKEGNGYISTDVMREILAELDETLSSEDLDAMIDEIDADGSGTVDFEEFMGHMT [V61H] | 1.67

Variant | folding stability dG [kcal/mol]
ELREAFRLYDKEGNGYISTDVMREILAELDETLSSEDLDAMIDEIDADGSGTVDFEEFMGWMT [V61W] | 3.03
ELREAFRLYDKEGNGYISTDVMREILAELDETLSSEDLDAMIDEIDADGSGTVDFEEFMGGMT [V61G] | 1.49
ELREAFRLYDKEGNGYISTDVMREILAELDETLSSEDLDAMIDEIDADGSGTVDFEEFMGKMT [V61K] | 1.32
ELREAFRLYDKEGNGYISTDVMREILAELDETLSSEDLDAMIDEIDADGSGTVDFEEFMGFMT [V61F] | 2.75
ELREAFRLYDKEGNGYISTDVMREILAELDETLSSEDLDAMIDEIDADGSGTVDFEEFMGEMT [V61E] | 0.207
ELREAFRLYDKEGNGYISTDVMREILAELDETLSSEDLDAMIDEIDADGSGTVDFEEFMGRMT [V61R] | 1.16
ELREAFRLYDKEGNGYISTDVMREILAELDETLSSEDLDAMIDEIDADGSGTVDFEEFMGYMT [V61Y] | 2.69
ELREAFRLYDKEGNGYISTDVMREILAELDETLSSEDLDAMIDEIDADGSGTVDFEEFMGPMT [V61P] | 0.265
ELREAFRLYDKEGNGYISTDVMREILAELDETLSSEDLDAMIDEIDADGSGTVDFEEFMGIMT [V61I] | 2.12
ELREAFRLYDKEGNGYISTDVMREILAELDETLSSEDLDAMIDEIDADGSGTVDFEEFMGMMT [V61M] | 1.83
ELREAFRLYDKEGNGYISTDVMREILAELDETLSSEDLDAMIDEIDADGSGTVDFEEFMGLMT [V61L] | 2.06
ELREAFRLYDKEGNGYISTDVMREILAELDETLSSEDLDAMIDEIDADGSGTVDFEEFMGNMT [V61N] | 0.566
ELREAFRLYDKEGNGYISTDVMREILAELDETLSSEDLDAMIDEIDADGSGTVDFEEFMGSMT [V61S] | 1.26
ELREAFRLYDKEGNGYISTDVMREILAELDETLSSEDLDAMIDEIDADGSGTVDFEEFMGTMT [V61T] | 1.21
ELREAFRLYDKEGNGYISTDVMREILAELDETLSSEDLDAMIDEIDADGSGTVDFEEFMGVMG [T63G] | 1.85
ELREAFRLYDKEGNGYISTDVMREILAELDETLSSEDLDAMIDEIDADGSGTVDFEEFMGVMC [T63C] | 2.18
ELREAFRLYDKEGNGYISTDVMREILAELDETLSSEDLDAMIDEIDADGSGTVDFEEFMGVMD [T63D] | 1.26
ELREAFRLYDKEGNGYISTDVMREILAELDETLSSEDLDAMIDEIDADGSGTVDFEEFMGVMF [T63F] | 1.56
ELREAFRLYDKEGNGYISTDVMREILAELDETLSSEDLDAMIDEIDADGSGTVDFEEFMGVME [T63E] | 1.66
ELREAFRLYDKEGNGYISTDVMREILAELDETLSSEDLDAMIDEIDADGSGTVDFEEFMGVMA [T63A] | 1.97
ELREAFRLYDKEGNGYISTDVMREILAELDETLSSEDLDAMIDEIDADGSGTVDFEEFMGVMH [T63H] | 1.76
